Key:
[1] = biological target: T1, MERS-CoV S protein (London1/2012) expressed on ExpiCHO cells (MERS-CoV, UniProt K9N5Q8 18-1353); experiment: flow cytometry on ExpiCHO cells transfected with MERS-CoV S
T1 sequence: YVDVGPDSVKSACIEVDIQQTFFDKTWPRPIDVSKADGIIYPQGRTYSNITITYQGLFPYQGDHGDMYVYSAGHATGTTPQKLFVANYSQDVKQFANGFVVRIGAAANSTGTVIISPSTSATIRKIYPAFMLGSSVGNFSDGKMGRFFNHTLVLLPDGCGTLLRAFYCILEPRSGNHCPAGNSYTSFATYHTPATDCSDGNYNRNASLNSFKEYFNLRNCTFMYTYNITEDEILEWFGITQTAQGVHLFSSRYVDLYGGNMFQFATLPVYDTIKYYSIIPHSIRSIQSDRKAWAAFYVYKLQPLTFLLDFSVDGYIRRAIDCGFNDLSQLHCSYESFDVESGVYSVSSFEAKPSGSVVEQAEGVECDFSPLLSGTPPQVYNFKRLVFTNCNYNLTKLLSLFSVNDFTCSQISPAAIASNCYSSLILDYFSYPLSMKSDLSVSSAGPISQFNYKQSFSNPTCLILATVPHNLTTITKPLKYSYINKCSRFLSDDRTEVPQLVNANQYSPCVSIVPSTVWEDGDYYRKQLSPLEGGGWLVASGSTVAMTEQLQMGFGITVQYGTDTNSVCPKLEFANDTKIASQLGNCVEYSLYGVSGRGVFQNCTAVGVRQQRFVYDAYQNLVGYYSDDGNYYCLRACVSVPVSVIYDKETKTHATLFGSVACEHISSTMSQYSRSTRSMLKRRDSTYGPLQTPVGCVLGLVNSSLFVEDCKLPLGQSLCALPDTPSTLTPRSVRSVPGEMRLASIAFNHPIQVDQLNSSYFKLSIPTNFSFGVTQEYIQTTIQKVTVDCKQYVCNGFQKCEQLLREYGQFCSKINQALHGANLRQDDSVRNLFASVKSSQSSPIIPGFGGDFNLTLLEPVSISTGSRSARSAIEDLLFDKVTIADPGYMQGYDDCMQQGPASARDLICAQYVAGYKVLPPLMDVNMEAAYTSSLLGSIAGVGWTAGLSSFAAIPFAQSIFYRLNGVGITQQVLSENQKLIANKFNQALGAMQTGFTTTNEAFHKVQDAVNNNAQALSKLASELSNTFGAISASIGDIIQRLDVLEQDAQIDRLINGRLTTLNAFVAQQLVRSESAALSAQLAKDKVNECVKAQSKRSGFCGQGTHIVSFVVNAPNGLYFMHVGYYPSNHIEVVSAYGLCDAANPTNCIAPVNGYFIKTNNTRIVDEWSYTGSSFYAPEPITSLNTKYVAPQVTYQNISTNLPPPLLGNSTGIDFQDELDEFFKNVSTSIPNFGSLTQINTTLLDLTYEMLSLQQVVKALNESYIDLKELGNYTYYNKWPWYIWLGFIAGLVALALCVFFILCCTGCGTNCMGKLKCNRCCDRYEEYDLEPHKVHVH

[2] = biological target: SARS-CoV S protein (Urbani strain) expressed on ExpiCHO cells (SARS-CoV, UniProt P59594 14-1255); experiment: flow cytometry on ExpiCHO cells transfected with SARS-CoV S
[3] = biological target: SARS-CoV Spike S1 Subunit Protein (strain WH20) (SARS-CoV, UniProt P59594 14-667); experiment: Octet (BLI): inhibition of SARS-CoV S1 binding to immobilized hACE2

Row | Binder | binding result [1] | binding result [2] | IC50 [3] [µg/mL]
1 | nCoV-19 mAb (antibody, V domains shown) VH: QVKLVESGGGVVQPGRSLRLSCAASGFTFSSNAMHWVRQTPGKGLEWVALISYDERNKYYAESVKGRFTISRDNSKNTLYLQMNSLRHEDTAVYYCARDLQMRVVVVSNFDYWGQGTLVTVSS VL: DVVMTQSPLSLPVTLGQPASISCRSSQSLVYSDGNTYLNWFQQRPGQSPRRLIYEVSNWDSGVPDRFSGSGSGTDFTLKISRVEAEDVGVYYCMQATHWPPTFGQGTKLEIK | no binding (tested: 10 µg/ml) | binds | 
2 | nCoV-20 mAb (antibody, V domains shown) VH: QVTLRESGPALVKPTQTLTLTCTFSGFSLTTTEMCVGWIRQPPGKALEWLALIDWDDDKYYSTSLRTRLTISKDTSKNQVVLTMTNMDPVDTATYYCARMFGRKRLAPTGFDPWGQGTLVTVSS VL: DIVMTQSPLSLPVTPGEPASISCRSSQSLLHSNGKNYLDWYLQKPGQSPQLLICLGSYRASGVPDRFSGSGSGTDFTLKISRVEAEDVGVYYCMQALQTPWTFGQGTKVEIK | no binding (tested: 10 µg/ml) | binds | 
3 | nCoV-1 mAb (antibody, V domains shown) VH: QAQLVESGGALVQPGRSLRLSCAASGFTFRNYAMHWVRQAPATGLQWLAVITSDGRNKFYADSVKGRFTISREDSKNTLYLQMDSLRGEDTAVYYCVTQRDNSRDYFPHYFHDMDVWGQGTTVAVSS VL: DVVLTQSPLSLPVTLGQPASISCRSSQSLVYSDGDTYLNWFQQRPGQSPRRLIYQVSNRDSGVPDRFSGSGSGTDFTLKISRVEAEDVGVYYCMQGSHWPPTFGQGTKVEIK | no binding (tested: 10 µg/ml) |  | 1.13
4 | nCoV-10 mAb (antibody, V domains shown) VH: QVQLVESGGGVVQPGRSLRLSCAASGFTFSNYGMHWVRQAPGKGLEWLAVISSDGRIKFYADSVKGRFTMSRDSSKNTLYLQMNSLRAEDTAVYYCAKDRFQFARSWYGDYFDYWGQGTQVTVSS VL: AVAMTQSPLSLPVTLGQPASISCRSNQSLVYSDGNIYLNWFQQRPGQSPMRLIYRVSNRDSGVPDRFSGSGSGTDFTLKISRVEAEDVGIYYCMQGTHWPPTFGGGTKVEIK | no binding (tested: 10 µg/ml) |  | 2.69

From patent US20250263466A1 (VIR BIOTECHNOLOGY, published 2025)
